The values below come from patent US20220381793A1, “COMPOSITIONS AND METHODS FOR IDENTIFYING MHC-II BINDING PEPTIDES” (priority 2021, published 2022).

The target in this assay is “empty” DR4-LZ (DRA*01:01/DRB1*04:01 ectodomains with Jun/Fos leucine zippers, non-covalent heterodimer displayed on yeast through Aga2p) (human).

For the substance “S862-888 (printed “5862-888”) (from UniProt P0DTC2 862-878) (peptide)”, the % competition is 75%.
